Measured values as given in US20200055939A1 (Genentech, published 2020).

T1: E276A
T1 construct: % monomer 86.14; also called MICA*008.mIgG2a E276A
T1 chain: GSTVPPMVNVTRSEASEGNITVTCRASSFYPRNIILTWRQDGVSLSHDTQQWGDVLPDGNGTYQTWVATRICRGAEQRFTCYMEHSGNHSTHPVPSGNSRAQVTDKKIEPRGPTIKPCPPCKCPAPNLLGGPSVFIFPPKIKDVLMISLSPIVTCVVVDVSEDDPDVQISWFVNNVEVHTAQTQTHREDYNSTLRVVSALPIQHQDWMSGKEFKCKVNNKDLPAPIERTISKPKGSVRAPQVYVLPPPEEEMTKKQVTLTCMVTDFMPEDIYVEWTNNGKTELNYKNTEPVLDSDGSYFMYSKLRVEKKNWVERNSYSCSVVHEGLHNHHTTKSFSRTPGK

T2: T238A
T2 construct: % monomer 96; also called MICA*008.mIgG2a T238A
T2 chain: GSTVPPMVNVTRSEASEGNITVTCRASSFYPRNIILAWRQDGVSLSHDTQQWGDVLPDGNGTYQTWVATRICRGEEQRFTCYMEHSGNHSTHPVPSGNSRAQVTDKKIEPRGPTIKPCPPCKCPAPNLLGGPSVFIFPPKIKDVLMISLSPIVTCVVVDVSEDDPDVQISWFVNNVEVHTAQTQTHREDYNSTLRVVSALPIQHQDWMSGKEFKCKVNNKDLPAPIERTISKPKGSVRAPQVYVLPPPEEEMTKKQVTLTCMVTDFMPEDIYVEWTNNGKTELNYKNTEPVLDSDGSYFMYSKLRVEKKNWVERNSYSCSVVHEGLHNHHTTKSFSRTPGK

T3: N289A
T3 construct: % monomer 89.74; also called MICA*008.mIgG2a N289A
T3 chain: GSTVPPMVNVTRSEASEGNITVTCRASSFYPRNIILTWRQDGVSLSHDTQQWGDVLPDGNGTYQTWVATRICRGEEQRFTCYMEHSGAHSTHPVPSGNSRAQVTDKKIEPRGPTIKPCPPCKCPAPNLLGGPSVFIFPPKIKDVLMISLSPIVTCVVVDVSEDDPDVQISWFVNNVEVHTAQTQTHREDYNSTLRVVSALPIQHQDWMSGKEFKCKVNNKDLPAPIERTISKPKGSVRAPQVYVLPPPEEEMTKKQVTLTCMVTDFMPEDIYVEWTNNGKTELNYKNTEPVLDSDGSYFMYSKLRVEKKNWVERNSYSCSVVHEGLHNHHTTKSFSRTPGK

T4: S247A
T4 construct: % monomer 94.87; also called MICA*008.mIgG2a S247A
T4 chain: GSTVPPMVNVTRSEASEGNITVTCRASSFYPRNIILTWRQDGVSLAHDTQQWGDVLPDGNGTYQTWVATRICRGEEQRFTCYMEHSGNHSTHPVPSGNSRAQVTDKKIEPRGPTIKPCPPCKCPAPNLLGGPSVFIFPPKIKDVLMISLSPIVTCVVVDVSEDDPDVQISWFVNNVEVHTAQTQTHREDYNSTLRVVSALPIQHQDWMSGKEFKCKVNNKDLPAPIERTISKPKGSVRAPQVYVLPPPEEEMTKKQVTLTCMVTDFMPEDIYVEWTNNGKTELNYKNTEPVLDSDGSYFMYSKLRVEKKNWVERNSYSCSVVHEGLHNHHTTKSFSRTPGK

T5: R274A
T5 construct: % monomer 94; also called MICA*008.mIgG2a R274A
T5 chain: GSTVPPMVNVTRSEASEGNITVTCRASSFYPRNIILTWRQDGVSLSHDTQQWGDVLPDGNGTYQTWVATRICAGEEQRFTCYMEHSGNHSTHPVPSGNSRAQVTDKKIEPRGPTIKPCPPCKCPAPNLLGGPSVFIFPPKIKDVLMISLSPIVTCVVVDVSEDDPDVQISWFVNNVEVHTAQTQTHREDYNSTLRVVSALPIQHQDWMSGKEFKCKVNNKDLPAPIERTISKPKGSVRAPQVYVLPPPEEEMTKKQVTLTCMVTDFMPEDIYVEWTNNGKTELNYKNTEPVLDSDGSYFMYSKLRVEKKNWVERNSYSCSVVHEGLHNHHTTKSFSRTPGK

T6: R279A
T6 construct: % monomer 95.2; also called MICA*008.mIgG2a R279A
T6 chain: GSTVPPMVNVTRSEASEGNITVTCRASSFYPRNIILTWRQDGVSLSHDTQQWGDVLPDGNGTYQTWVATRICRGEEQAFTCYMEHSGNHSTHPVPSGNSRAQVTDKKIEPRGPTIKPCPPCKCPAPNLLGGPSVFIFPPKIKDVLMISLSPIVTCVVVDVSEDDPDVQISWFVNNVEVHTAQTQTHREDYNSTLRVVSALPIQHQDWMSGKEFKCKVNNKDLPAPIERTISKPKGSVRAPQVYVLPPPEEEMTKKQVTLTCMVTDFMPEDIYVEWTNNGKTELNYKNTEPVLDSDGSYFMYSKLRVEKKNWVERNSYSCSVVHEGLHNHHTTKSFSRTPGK

T7: H248A
T7 construct: % monomer 92.05; also called MICA*008.mIgG2a H248A
T7 chain: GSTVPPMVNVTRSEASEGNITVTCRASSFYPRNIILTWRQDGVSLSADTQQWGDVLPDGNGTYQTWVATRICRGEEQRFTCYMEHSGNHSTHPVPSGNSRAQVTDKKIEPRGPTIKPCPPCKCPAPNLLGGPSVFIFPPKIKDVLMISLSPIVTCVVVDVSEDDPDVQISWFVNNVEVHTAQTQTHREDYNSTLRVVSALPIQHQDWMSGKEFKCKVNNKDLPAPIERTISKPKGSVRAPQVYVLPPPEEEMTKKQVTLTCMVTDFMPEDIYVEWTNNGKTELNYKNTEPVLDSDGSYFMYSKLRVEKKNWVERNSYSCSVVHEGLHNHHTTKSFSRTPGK


Columns and labels:
Experiment in all cases: SPR, Fab over captured MICA*008.mIgG2a Ala variant; KD relative to wild type
E276A = target: T1, E276A
T238A = target: T2, T238A
N289A = target: T3, N289A
S247A = target: T4, S247A
R274A = target: T5, R274A
R279A = target: T6, R279A
H248A = target: T7, H248A

Binder | fold-decrease in affinity (E276A) | fold-decrease in affinity (T238A) | fold-decrease in affinity (N289A) | fold-decrease in affinity (S247A) | fold-decrease in affinity (R274A) | fold-decrease in affinity (R279A) | fold-decrease in affinity (H248A)
1D5 Fab (Fab, V domains shown, Expressed in E. coli as chimera of murine variable and human constant domains; not shown: human IgG1 CH1 constant domain; human kappa CL constant domain) VH: EIQLQQSGPELVKPGASVKVSCKASGYAFTSQNIYWVKQSHGKSLEWIGYIEPYNVVPMYNPKFKGKATLTVDKSSSSAYIHLNSLTSEDSAIYYCARSGSSNFDYWGQGTTLTVSS VL: EIILTQSPTTMAASPGEKITITCSASSSISSHYLHWYQQKSGFSPKLLIYRTSNLASGVPARFSGSGSGTSYSLTIGTMEAEDVATYYCQQGSSLPLTFGAGTKVEIK | 22 | 0.4 | 0.2 | 0.2 |  |  | 
2E5.2.3 Fab (Fab, V domains shown) VH: QGQMQQSGAELVKPGASVKLSCKTSGFTFSDNYISWLKQKPGQSLEWIAWIYAGTGGTSYNQKFTAKAQLTVDTSSSTAYMQFSSLTTEDSAIYYCARHDYYGTSGAWFAYWGQGTLVTVSA VL: DVLMTQTPLSLPVSLGDQASLSCRSSQNIVHINGNTYLEWYLQKPGQSPKLLIYKVSNRFSGVPDRFSGSGSGTDFTLKISRVEAEDLGVYYCFQGSHVPWTFGGGTKVEIK | 1.2 | 1.3 | 1.1 | 1.1 | 1.1 | 0.8 | 1

Next, values leading:

fold-decrease in affinity (E276A) | fold-decrease in affinity (T238A) | fold-decrease in affinity (N289A) | fold-decrease in affinity (S247A) | fold-decrease in affinity (R274A) | fold-decrease in affinity (R279A) | fold-decrease in affinity (H248A) | Binder
4.3 | 0.1 | 1.2 | 0.9 | 1 | 4.5 | 0.6 | 6F8.7 Fab (Fab, V domains shown) VH: DVQLQGSGPGLVKPSQSLSLTCSVTGYSITNDYYWNWIRQFPGNKLEWMGFISFGGSNNYNPSLKNRISITRDTSKNQFFLKLSSVTTEDTATYYCARYDGRGAWFAYWAQGTLVTVSA VL: DIQMTQSPASLSASVGETVTITCRASGNIHNYLAWYQQKQGKSPQLLVYDAITLADGVPSRFSGSGSGTQYSLKINSLQPEDFGNYYCQHFWSFPLTFGAGTKVEIK
0.7 | 0.1 | 3.5 | 0.8 | 0.9 | 5.1 | 0.6 | 7D4.6 Fab (Fab, V domains shown) VH: DVQLQESGPGLVKPSQSLSLTCTVTGYSITSDYAWNWIRQFPRNKLEWMGYINYSGTTNYNPSLKSRISITRDTSKNQFFLQLISVTTEDTATYYCSYYRYDGAWFPYWGQGTLVTVSA VL: DIQMTQSPASLSASVGETVTITCRASGNIHNYLAWYQQKQGKSPQLLVYNAIMLADGVPSRFSASGSGTQYSLKINSLQPEDFGSYYCQHFWSFPLTFGAGTKVEIK
